Results: the supplement of paper PMC9732359
± gives the uncertainty stated by the source.

Assay: protein stability index of a GFP-peptide fusion (yeast GPS) (PSI 1-4); higher = more stable; sorted into four equal gates, so the index is relative within each strain
Method in brief: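 Each library plasmid carries Cherry plus GFP with a tiled 17-residue yeast protein peptide fused downstream, and the pooled library was carried in yeast. Mid-log cultures in leucine-free medium were sorted into four equal gates by GFP/Cherry ratio. Reads from Illumina sequencing of PCR-amplified plasmids from each gate were assigned to strains by barcodes. Per peptide, the protein stability index was computed as the summed products of gate read frequency and gate number.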

Sequence	protein stability index (doa10∆)	protein stability index (pdr5∆)	protein stability index (san1∆)	protein stability index (ubr1∆)
DLCSSVLSQFERSYPSE [ROX3]	2.58 ± 0.094	3.42 ± 0.17	2.98 ± 0.074	3.17 ± 0.086
VEWINPSRRERRREQTT [ISW2]	–	–	–	3.39 ± 0.15
DTNAPVAATITSSQKEP [SRB8]	2.35 ± 0.14	2.79 ± 0.13	3.04 ± 0.086	2.96 ± 0.11
EVYGINEESTNERLEIN [SIR4]	3.29 ± 0.16	3.25 ± 0.13	3.22 ± 0.16	3.15 ± 0.14
ETKSWINESAENFSNGI [MED1]	3.04 ± 0.062	2.72 ± 0.047	2.74 ± 0.056	2.77 ± 0.042
QRQYKVQLLLHINSILL [SNF11]	1.88 ± 0.082	1.84 ± 0.061	1.89 ± 0.098	1.96 ± 0.057
IKGSKLSLGEAFKKIDA [COR1]	3.29 ± 0.28	–	2.29 ± 0.16	2.64 ± 0.093
AFEELEGSWDRGIPRIS [PRP8]	2.88 ± 0.18	3.36 ± 0.19	3.36 ± 0.22	3.3 ± 0.24
EKRYDDKLLDFIRYDVK [CSN12]	3.3 ± 0.063	3.25 ± 0.066	3.22 ± 0.046	3.17 ± 0.066
HPTVVDAIDNSDEITQD [IRR1]	3.22 ± 0.093	3.17 ± 0.071	3.23 ± 0.068	3.15 ± 0.052
AGFTHKLSNWLFGWNDL [YDL088C/ASM4]	2.69 ± 0.065	3.06 ± 0.059	2.9 ± 0.063	2.93 ± 0.037
DLFTHLWNQWLKLNTSL [SRP68]	1.76 ± 0.048	2.05 ± 0.047	2.27 ± 0.066	1.83 ± 0.038
LAPSKHQPITSEQKMKE [SIR4]	2.31 ± 0.077	2.37 ± 0.098	2.61 ± 0.1	2.29 ± 0.24
KDTNDHVDKRTKIDQEA [ISW2]	2.6 ± 0.047	2.62 ± 0.048	2.77 ± 0.051	2.57 ± 0.036
VLESHWKQDLTKEEAIK [PUP1]	2.71 ± 0.18	3.15 ± 0.13	3.32 ± 0.12	3.08 ± 0.15
PEYEKAMQYVCGDSIIC [SMC1]	1.7 ± 0.1	2.27 ± 0.17	1.88 ± 0.14	1.89 ± 0.1
EPIDQNTGIVSSTTGMS [RPT3]	3.15 ± 0.11	2.65 ± 0.22	3.39 ± 0.14	3.24 ± 0.089
GLVHDLCHPKKEKYGLA [SMC1]	2.59 ± 0.11	2.84 ± 0.12	2.81 ± 0.29	2.17 ± 0.083
MAGKVLILTSHNMKAYY [BRR2]	2.1 ± 0.06	2.46 ± 0.058	1.6 ± 0.094	2.4 ± 0.068
TYDKETITDLIEQGIPK [SIR4]	3.3 ± 0.049	3.39 ± 0.051	3.35 ± 0.04	3.41 ± 0.043
RSTDEFNGAQLKAVTVE [RPT5]	2.86 ± 0.29	3.71 ± 0.24	–	2.06 ± 0.19
TSNDASNKKETKKKRKP [ITC1]	3.08 ± 0.089	3.25 ± 0.075	3.21 ± 0.088	3.29 ± 0.074
NFTSPTAVVNNAAPANV [SWI1]	2.86 ± 0.057	2.77 ± 0.08	2.69 ± 0.088	2.91 ± 0.053
VAAKWNTSLISLFTYFR [PRP8]	1.7 ± 0.064	1.97 ± 0.095	1.74 ± 0.18	2 ± 0.039
AIACYSGYNQEDSMIMN [RPB2]	2.65 ± 0.084	1.75 ± 0.072	2.67 ± 0.098	2.39 ± 0.12
QQQRRQLTPQQQQLVNQ [GAL11]	2.72 ± 0.049	3 ± 0.05	2.8 ± 0.038	3 ± 0.049
PSQGMVVEISNGNTSSK [FAS1]	3.08 ± 0.057	3.27 ± 0.051	3.2 ± 0.048	3.29 ± 0.056

Sequence	protein stability index (doa10∆)	protein stability index (pdr5∆)	protein stability index (san1∆)	protein stability index (ubr1∆)
LRSDIPCLSRSCTKCPQ [DIS3]	2.89 ± 0.04	2.94 ± 0.04	2.91 ± 0.031	2.92 ± 0.033
NRAMEYDALLSINVHSN [RET1]	2.58 ± 0.061	2.41 ± 0.064	2.29 ± 0.07	2.68 ± 0.045
QDKSKKIMNVTTDSLTK [YMR129W/POM152]	3.25 ± 0.064	2.97 ± 0.06	3.1 ± 0.034	3.21 ± 0.044
GGLFGNSAQNNSTTSGG [YGR119C/NUP57]	3.08 ± 0.069	3.36 ± 0.11	2.78 ± 0.068	3.06 ± 0.096
VAKVDEEGRAIPGEYIT [RPS21B]	2.5 ± 0.095	2.52 ± 0.12	2.44 ± 0.1	2.77 ± 0.065
VDKIFEKVNNNATLTPN [SWI1]	3.09 ± 0.079	3.08 ± 0.073	3.22 ± 0.069	3.15 ± 0.051
GRMDMTRLYDYEIRDID [SSN2]	3.29 ± 0.24	2.94 ± 0.15	3.38 ± 0.074	3.36 ± 0.096
LARHLPAELDLRGSLLS [RPC82]	3.04 ± 0.12	3.16 ± 0.11	3.01 ± 0.085	3.15 ± 0.072
QFVPELKEFTAKLRKEL [FAS2]	1.53 ± 0.061	1.61 ± 0.043	1.53 ± 0.1	1.57 ± 0.026
VTSKVRNAEFKVSKNST [YMR153W/NUP53]	3.08 ± 0.15	3.49 ± 0.19	2.98 ± 0.11	3.28 ± 0.29
DKDAFIPKLKPAPINSL [SNU114]	2.81 ± 0.069	2.88 ± 0.063	2.83 ± 0.05	2.84 ± 0.054
LTTAREHHSSVKYASPN [FAS2]	3.02 ± 0.065	3.11 ± 0.057	3.04 ± 0.041	3.06 ± 0.04
SDPQMKVFDTLTRFSHD [RPN1]	–	2.84 ± 0.15	2.78 ± 0.18	2.94 ± 0.21
PSKLVITKLHLDKDRKA [RPL26A]	1.73 ± 0.18	1.75 ± 0.086	1.75 ± 0.28	1.21 ± 0.099
NGCSGADVKGVCTEAGM [RPT6]	3.15 ± 0.18	3.7 ± 0.16	3.25 ± 0.11	3.1 ± 0.11
LLWTPKKLEITSDGALS [RPR2]	2.09 ± 0.047	2.42 ± 0.048	2.61 ± 0.044	2.4 ± 0.034
EESWEKVVEFAITHMID [SCL1]	2.62 ± 0.087	2.92 ± 0.098	3.06 ± 0.083	2.91 ± 0.07
KQEQEEKIKSKKINRRN [YCG1]	3.4 ± 0.18	2.87 ± 0.17	2.75 ± 0.29	3.22 ± 0.15
FDVNNIDMHLIYGVEWL [YDL116W/NUP84]	2.12 ± 0.059	2.09 ± 0.049	1.92 ± 0.074	2.27 ± 0.044
SQLLLERLMISSDAFEV [RET1]	1.8 ± 0.08	2.4 ± 0.044	1.98 ± 0.058	1.86 ± 0.049
VERGRVGACTDEEMTIS [RRP43]	–	3.08 ± 0.23	–	3.23 ± 0.2
ANMATVPSTTNVNMTVN [MED6]	2.92 ± 0.099	3.08 ± 0.084	–	2.93 ± 0.052
VFVNTGLQNVRKVRTKK [SWP82]	2.51 ± 0.16	2.35 ± 0.096	2.78 ± 0.17	3.11 ± 0.15
TDWDPQFNAITGLNGSG [SMC2]	2.94 ± 0.19	–	2.3 ± 0.19	–
LIESGIGTHHAGLTRSD [BRR2]	3.31 ± 0.095	3.5 ± 0.13	2.82 ± 0.1	3.43 ± 0.062
KQLQLAMHNSKAASSTR [POP1]	1.96 ± 0.057	2.17 ± 0.071	1.54 ± 0.11	1.74 ± 0.037
PESQGQHEQQKQQEQLE [YMR153W/NUP53]	3.4 ± 0.083	3.37 ± 0.066	3.24 ± 0.06	3.26 ± 0.072
